{
  "source": "paper PMC4408115",
  "biological_target": "SPbCZ5: leucine zipper-GGSG-LucY (from A235)-…-Avi-tag (Geobacillus species)",
  "assay": "split reporter (BiFC, NanoBiT); LucY protein-fragment complementation: LucY fragments fused to antiparallel leucine zippers, co-expressed in E. cloni 10G (E. coli), 16-18 h at 37°C; whole-cell fluorescence in PBS (excitation 485 nm, emission 528 nm) as percent of CZ (zipper fused to whole LucY)",
  "data": [
    {"substance": "SPbNZ5: His6-LucY (to H234)-GGSGSS-leucine zipper", "values": [
      {"measurement": "fluorescence, percent of CZ control (% of CZ control)", "result": 33}
    ]}
  ]
}
